Read-outs that look alike come from different tables or passages of the source.
What was measured:
CaFADS FMNAT activity = CaFADS FMNAT activity (Corynebacterium ammoniagenes, UniProt Q59263); experiment: Steady-state kinetics of the FMNAT activity (FMN → FAD), continuous fluorometric assay; format: biochemical; details: 25 °C, 20 mM PIPES pH 7.0, 10 mM MgCl2
Procedure: The CaFADS FMNAT activity was fluorometrically measured using a continuous assay. […] A Cary Eclipse spectrophotofluorometer with excitation and emission wavelengths of 420 nm and 530 nm, respectively, was used. FAD and FMN fluorescence were individually calibrated using standard solutions and the data were analyzed as previously described.

CaFADS RFK activity = details: 25 °C
Procedure: The CaFADS RFK activity was measured at 25 °C in 500 µl of 20 mM PIPES, 0.8 mM MgCl2, pH 7.0, containing 0.5–45 µM RF and 10–500 µM ATP. Reactions were initiated by addition of ~20 nM of the monomeric enzyme. After 1 min incubation at 25 °C, the reactions were stopped by boiling the mixtures for 5 min. The flavin composition in the supernatant was determined using an Alliance HPLC system (Waters), equipped with a 2707 autosampler and an HSST3 column (4.6 × 150 mm, 3.5 µm, Waters), preceded by a precolumn (4.6 × 20 mm, 3.5 µm, Waters). Flavins (FMN or FAD) produced from RF were quantified using their corresponding standard curves, as previously described[21].
When an excess of RF inhibited the RFK activity, the experimental data were interpreted through a model describing the substrate inhibition of a bi-substrate mechanism[26]. In these situations, the errors in apparent K m and k cat (^app K m and ^app k cat) increased as the inhibition constant (K i) approached K m ^S. Experiments were performed in triplicate.
CaFADS:ADP:Mg^2+ complex = target: T1, CaFADS:ADP:Mg^2+ complex (Corynebacterium ammoniagenes, UniProt Q59263); details: FMN binding to preformed CaFADS:ADP:Mg2+ complex; ITC, 25 °C, pH 7.0, 10 mM MgCl2; ref [16], [21]; read-out: K d FADS:ADP:FMN, RFK site; cited from earlier work
T1 construct: made in house; host or cells: E. coli BL21(DE3)

CaFADS [1] = target: T2, CaFADS (Corynebacterium ammoniagenes, UniProt Q59263); details: ITC; in brackets; ref [16], [21]; cited from earlier work
CaFADS [2] = target: T2, CaFADS; set-up: made in house; host or cells: E. coli BL21(DE3); details: ITC, ref [16], [21], cited from earlier work
CaFADS [3] = target: T2, CaFADS; set-up: made in house; host or cells: E. coli BL21(DE3); details: ITC, ref [16], [21], cited from earlier work; remark: listed apart in the source
CaFADS [4] = target: T2, CaFADS; set-up: made in house; host or cells: E. coli BL21(DE3); details: ITC, ref [16], [21], cited from earlier work; remark: listed apart in the source
[5] = RF concentration giving ~80% of maximal activity, pH 7.0, 0.8 mM MgCl2

B1: WT: wild-type bifunctional FAD synthetase from Corynebacterium ammoniagenes (CaFADS) (protein)
chain: MDIWYGTAAVPKDLDNSAVTIGVFDGVHRGHQKLINATVEKAREVGAKAIMVTFDPHPVSVFLPRRAPLGITTLAERFALAESFGIDGVLVIDFTRELSGTSPEKYVEFLLEDTLHASHVVVGANFTFGENAAGTADSLRQICQSRLTVDVIDLLDDEGVRISSTTVREFLSEGDVARANWALGRHFYVTGPVVRGAGRGGKELGFPTANQYFHDTVALPADGVYAGWLTILPTEAPVSGNMEPEVAYAAAISVGTNPTFGDEQRSVESFVLDRDADLYGHDVKVEFVDHVRAMEKFDSVEQLLEVMAKDVQKTRTLLAQDVQAHKMAPETYFLQAES
- K m ATP FMNAT activity (CaFADS FMNAT activity): 22.4 ± 2.0 µM
- K m FMN FMNAT activity (CaFADS FMNAT activity): 10.1 ± 1.0 µM
- k cat FMNAT activity (CaFADS FMNAT activity): 0.0917 ± 0.0083 s⁻¹
- k cat/K m ATP FMNAT activity (CaFADS FMNAT activity): 4170 ± 500 M⁻¹ s⁻¹
- k cat/K m FMN FMNAT activity (CaFADS FMNAT activity): 9000 ± 1200 M⁻¹ s⁻¹
- K m ATP RFK activity (CaFADS RFK activity; [5]): 28.2 ± 3.9 µM
- k cat RFK activity as function of ATP (CaFADS RFK activity; [5]): 2.58 ± 0.083 s⁻¹
- k cat/K m ATP RFK activity (CaFADS RFK activity; [5]): 91700 ± 13000 M⁻¹ s⁻¹
- k cat (apparent) RFK activity (CaFADS RFK activity; saturating ATP, apparent constant (RF substrate inhibition), 20 mM PIPES pH 7.0, 0.8 mM MgCl2): 6.8 ± 3.83 s⁻¹
- K m RF (apparent) RFK activity (CaFADS RFK activity; saturating ATP, apparent constant, 20 mM PIPES pH 7.0, 0.8 mM MgCl2): 11.7 ± 3.0 µM
- k cat/K m RF RFK activity (CaFADS RFK activity; saturating ATP, apparent, pH 7.0, 0.8 mM MgCl2): 582000 ± 360000 M⁻¹ s⁻¹
- Kd (CaFADS:ADP:Mg^2+ complex): 0.9 ± 0.1 µM
- stoichiometry FADS:RF (CaFADS [1]): 2
- Kd (CaFADS [2]; 25 °C, pH 7.0, 10 mM MgCl2, read-out: K d FADS:FMN): 7.8 µM
- stoichiometry FADS:FMN (CaFADS [2]; in brackets): 1
- Kd (CaFADS [3]; 25 °C, pH 7.0, 10 mM MgCl2, read-out: K d FADS:FAD): 0.74 µM
- stoichiometry FADS:FAD (CaFADS [3]; in brackets): 1
- Kd (CaFADS [4]; 25 °C, pH 7.0, 10 mM MgCl2, average K d,av of two sites, read-out: K d FADS:ATP): 30.2 µM
- stoichiometry FADS:ATP (CaFADS [4]; in brackets): 2

Reference: publication PMC5428420, “The trimer interface in the quaternary structure of the bifunctional prokaryotic FAD synthetase from Corynebacterium ammoniagenes” (Scientific Reports, 2017)
